How the values were obtained:
Activin AB [1] = target: T1, Activin AB (human, UniProt P08476 311-426; P09529 293-407); experiment: cell-based or functional assay
T1 chain 1: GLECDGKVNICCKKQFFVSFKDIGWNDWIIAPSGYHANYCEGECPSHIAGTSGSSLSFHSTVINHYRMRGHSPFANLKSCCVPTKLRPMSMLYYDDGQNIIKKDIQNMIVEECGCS
T1 chain 2: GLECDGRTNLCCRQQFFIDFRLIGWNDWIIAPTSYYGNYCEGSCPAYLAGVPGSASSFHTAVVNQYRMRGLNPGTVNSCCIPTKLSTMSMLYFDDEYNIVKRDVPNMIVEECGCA

Activin A [2] = target: T2, Activin A (human, UniProt P08476 311-426); experiment: cell-based or functional assay
T2 sequence: T1 chain 1

Activin B [3] = target: T3, Activin B (human, UniProt P09529 293-407); experiment: cell-based or functional assay
T3 chain: T1 chain 2

Activin AC [4] = target: T4, Activin AC (human, UniProt P55103 237-352); experiment: cell-based or functional assay
T4 sequence 1: T1 chain 1
T4 sequence 2: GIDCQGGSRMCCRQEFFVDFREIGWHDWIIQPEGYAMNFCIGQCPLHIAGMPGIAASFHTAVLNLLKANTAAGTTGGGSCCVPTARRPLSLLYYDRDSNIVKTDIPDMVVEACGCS

Activin AC [5] = target: T4, Activin AC; experiment: SPR (Biacore), mAb captured on anti-Fc, Activin AC injected, 37 C
Procedure, shortened: (§1)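 Reported half-lives follow ln2/(60*kd) in minutes, with KD taken as kd/ka. Both rest on fits to binding data from 240 s of association and 600 s of buffer dissociation.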

hBMP2 = target: T5, hBMP2 (human, UniProt P12643 283-396); experiment: SPR (Biacore 4000), captured on anti-human Fc, 200 nM ligand injected, 37 C
T5 construct: Bought protein; also called BPM2
T5 sequence (P12643 283-396 limits assumed): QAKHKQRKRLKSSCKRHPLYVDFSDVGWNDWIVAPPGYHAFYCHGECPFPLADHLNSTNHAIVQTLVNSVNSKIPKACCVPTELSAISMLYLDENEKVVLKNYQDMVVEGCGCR
Method: (§2) For the binding experiment, a Biacore 4000 instrument was used. […] All Biacore binding studies were performed in HBS-T running buffer (0.01 M HEPES pH 7.4, 0.5 M NaCl, 3 mM EDTA, 0.5 mg/ml bovine serum albumin, 0.05% v/v Surfactant P20). […] All binding measurements were performed at 37° C. […] Over the captured antibody surface was injected the TGF-beta family ligands through concentrations ranging from 3.1 nM to 200 nM.

hBMP10 = target: T6, hBMP10 (human, UniProt O95393 317-424); experiment: as above
T6 construct: Bought protein
T6 sequence (looked up): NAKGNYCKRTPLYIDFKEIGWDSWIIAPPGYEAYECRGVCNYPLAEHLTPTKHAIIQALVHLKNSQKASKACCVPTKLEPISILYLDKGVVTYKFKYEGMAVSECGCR
Method: as §2

Activin AB [6] = target: T1, Activin AB; experiment: as above
Method: as §2

hBMP4 = target: T7, hBMP4 (human, UniProt P12644 293-408); experiment: as above
T7 construct: Bought protein
T7 sequence (looked up): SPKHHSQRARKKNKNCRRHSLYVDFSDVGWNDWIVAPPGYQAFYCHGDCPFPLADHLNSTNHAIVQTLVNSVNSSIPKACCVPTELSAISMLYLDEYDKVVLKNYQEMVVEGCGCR
Method: as §2

hBMP6 = target: T8, hBMP6 (human, UniProt P22004 382-513, limits assumed); experiment: as above
T8 construct: Bought protein
T8 sequence (looked up): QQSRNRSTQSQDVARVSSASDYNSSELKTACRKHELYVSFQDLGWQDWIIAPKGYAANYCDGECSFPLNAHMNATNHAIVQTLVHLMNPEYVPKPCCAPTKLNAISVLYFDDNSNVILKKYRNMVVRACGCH
Method: as §2

GDF8 = target: T9, GDF8 (human, UniProt O14793 267-375); experiment: as above
T9 construct: Bought (R&D Systems #788-G8); also called hGDF8; growth and differentiation factor-8
Method: as §2

hBMP9 = target: T10, hBMP9 (human, UniProt Q9UK05 320-429); experiment: as above
T10 construct: Bought protein
T10 sequence (looked up): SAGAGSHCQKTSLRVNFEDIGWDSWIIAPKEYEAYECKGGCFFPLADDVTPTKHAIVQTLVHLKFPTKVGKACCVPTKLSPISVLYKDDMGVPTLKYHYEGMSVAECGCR
Method: as §2

Activin A [7] = target: T2, Activin A; experiment: as above
Method: as §2

Activin B [8] = target: T3, Activin B; experiment: as above
Method: as §2

Activin AC [9] = target: T4, Activin AC; experiment: as above
Method: as §2

GDF11 = target: T11, GDF11 (human, UniProt O95390 299-407); experiment: as above
T11 construct: Bought protein; also called hGDF11
T11 sequence (O95390 299-407 limits assumed): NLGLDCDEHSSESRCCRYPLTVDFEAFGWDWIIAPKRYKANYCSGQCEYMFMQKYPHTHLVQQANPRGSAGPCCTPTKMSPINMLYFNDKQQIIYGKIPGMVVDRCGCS
Method: as §2

Activin AC [10] = target: T4, Activin AC; experiment: SPR (Biacore), mAb captured on anti-Fc, Activin AC injected, 25 C
Procedure, shortened: as §1

Activin AB [11] = target: T1, Activin AB; experiment: SPR (Biacore), mAb captured on anti-Fc, Activin AB injected, 37 C
Procedure, shortened: as §1

Activin AB [12] = target: T1, Activin AB; experiment: SPR (Biacore), mAb captured on anti-Fc, Activin AB injected, 25 C
Procedure, shortened: as §1

IC50 [M], inhibition of 30 pM Activin AB in A204/CAGAx12-Luc Smad2/3-luciferase bioassay (Activin AB [1]): 2.9e-10 M
IC50 [M], inhibition of 100 pM Activin A in A204/CAGAx12-Luc Smad2/3-luciferase bioassay (Activin A [2]): 1.6e-10 M
IC50 [M], inhibition of 50 pM Activin B in A204/CAGAx12-Luc Smad2/3-luciferase bioassay (Activin B [3]): 7.9e-08 M
IC50 [M], inhibition of 4 nM Activin AC in A204/CAGAx12-Luc Smad2/3-luciferase bioassay (Activin AC [4]): 5.8e-10 M
50 nM Ag Bound (RU) (Activin AC [5]): 35.7 RU
Kd (Activin AC [5]): 0.462 nM
koff (Activin AC [5]): 0.00062 s⁻¹
kon (Activin AC [5]): 1.34e+06 M⁻¹ s⁻¹
t1/2 (Activin AC [5]): 18.6 min
binding response (resonance units) for 200 nM ligand (hBMP2): 3.6 RU
binding response (resonance units) for 200 nM ligand (hBMP10): 32.4 RU
binding response (resonance units) for 200 nM ligand (Activin AB [6]): 76.5 RU
binding response (resonance units) for 200 nM ligand (hBMP4): 1.1 RU
binding response (resonance units) for 200 nM ligand (hBMP6): 4.6 RU
binding response (resonance units) for 200 nM ligand (GDF8): -0.4 RU
binding response (resonance units) for 200 nM ligand (hBMP9): 33.4 RU
binding response (resonance units) for 200 nM ligand (Activin A [7]): 56.8 RU
binding response (resonance units) for 200 nM ligand (Activin B [8]): 51.5 RU
binding response (resonance units) for 200 nM ligand (Activin AC [9]): 43.1 RU
binding response (resonance units) for 200 nM ligand (GDF11): 1.6 RU
50 nM Ag Bound (RU) (Activin AC [10]): 28 RU
Kd (Activin AC [10]): 0.0997 nM
koff (Activin AC [10]): 9.1e-05 s⁻¹
kon (Activin AC [10]): 913000 M⁻¹ s⁻¹
t1/2 (Activin AC [10]): 127 min
50 nM Ag Bound (RU) (Activin AB [11]): 50 RU
Kd (Activin AB [11]): 0.0755 nM
koff (Activin AB [11]): 0.000488 s⁻¹
kon (Activin AB [11]): 6.47e+06 M⁻¹ s⁻¹
t1/2 (Activin AB [11]): 23.6 min
50 nM Ag Bound (RU) (Activin AB [12]): 40 RU
Kd (Activin AB [12]): 0.0228 nM
koff (Activin AB [12]): 0.000103 s⁻¹
kon (Activin AB [12]): 4.53e+06 M⁻¹ s⁻¹
t1/2 (Activin AB [12]): 112 min
B1: H4H10429P (antibody, human IgG4, V domains shown)
VH: QVQLVESGGGVVQPGRSLRLSCVASGFTVSSYGIHWVRQAPGKGLEWVSVIWYDGRNKDYADSVKGRFTISRDNSKNTVYLEMKGLRAEDTALYYCARDKTGDFDSWGQGTLVTVSS
VL: DIQMTQSPSSLSASVGDRVTITCRASQNINSFLSWYQQKPGKAPKFLIYDASSIQSGAPSRFSGSGSGTDFTLTISSLQPEDFATYYCQQSYSSPFTFGQGTKLEIK
